B1: CO-06: alkene cleavage oxygenase, Novosphingobium sp., SEQ ID NO: 38 (protein, listed as Novosphingobium sp.)
chain: MNIRFPNNDFTSFEAPMRAEIDLKGLEVIQGEVPRQLSGGFFRLIGDRKWPAFVENDIFMLGEDGMASCFYFKDGQVDFKMRYVRTPRFVAEEKAGRALFGHYRNPFSDDPSVAGLSRGTANVTVLVHAGKMLALKEDSPAIELDPFTLETIGEYDWGGVVTAKAITAHPKIDPKTGELVFFGYCAAGPATRDIAYYEADAEGRIIHETWFEAPYTCMVHDIMVTENYVVFPITPLRHELEWIERNEPAFKWDPSEDVYLGVLPRKGKGEQVRWFKGPNQCHGHTVGAFDDGRFIYADNTFSKRSFFHFFPNTDGSEFNPADAMPFIKRLVIDMESNDDSFTEQQMFGYPCELPRIDTRFETMPYNFVTMNLLDVPEQERIGMGFQWVATMDINGQKPAKIYYAGHDCSIGEPQFVPRSDDAAEGDGYILTVVGKHREMRSELLILDAGDITAPPIATVALPFRLRSTGHGYWYGTRQLRGETNIIGAW
B2: CO-01: aromatic dioxygenase from Thermothelomyces thermophilus (GenBank XP_003665585), SEQ ID NO: 26 (protein, listed as Thermothelomyces thermophilus)
chain: MAHIHDLAPEVSNYSSGRLTPPTPVRFPRTPVFASMNKPCRFEGDVFDLEVSGAIPPDIDGTFFRVQPDHRFPPLFEDDIHFNGDGSVTAIRISGGHADLRQRYVRTERYLLETRARRSLFGRYRNPWTDNESVRGVIRTASNTNVVFWRGALLAMKEDGPPFAMDPVTLETLGRYDFEGQILSPTFTAHPKIDPDTGEMVCFAYEAGGDGSDCSVDVAVWTVDADGKKVEECWYKAPFAGMIHDCGITKNWVVLPLTPIKMDLERMKRGGNKFAWDPSEDQWYGVVPRRGAKSDDIIWFRADNGFHGHVAGCYELPSGEIVFDLTVADGNVFFFFPPDDNITPPADGVAKRNRLSSPTVRWIFDPKAKKSAIRTEAAGDADIWVADERVKPALTWPTNGEFSRIDDRYVTKPYRHFWQAVVDPTRPYDFEKCGPPAGGLFNCLGHYTWSDQNYHHGHNTGDPSGDGRSNGSAEEATAGKFGLQDVYFAGPTMTFQEPTFIPRQGAAEGEGYLIALLNHLDELRNDVVIFEARNLGKGPLAVIHLPLKLKLGLHGNWVDSREIEAWRRRRAENGDVGPLRVAKEPLPWQKKFAAAAQNGSNGV

Key:
[1] = Spectrophotometric enzymatic assay: cleaving activity, production of vanillin from coniferyl alcohol at 349 nm; type: biochemical; settings: spectrophotometric assay
Experimental: Stock solution 200× of coniferyl alcohol (90 mg) was prepared in ethanol (5 mL) and stored at −20° C. From this, a new stock solution 20× of coniferyl alcohol (10 mM) was freshly prepared by 1:10 dilution in Glycine-NaOH (50 mM, pH 9.0). A cuvette containing 0.750 mL Glycine-NaOH (50 mM, pH 9.0) and 0.05 mL of the substrate 20× stock was pre-warmed at 25° C. for 1.5 mins. Then, the reaction was initiated by the addition of 0.2 mL of the enzyme sample. The cleaving […] activity was measured spectrophotometrically following the production of vanillin at 349 nm (ε349=26.7 mM^−1cm^−1 experimentally determined). One unit of activity (U) is defined as the amount of enzyme required to produce 1 μmol of vanillin per min. Agilent Cary 60 UV-Vis Spectrophotometer was used for all the measurements.
Searching for alternative novel alkene cleavage oxygenases (COs) catalysing the formation of vanillin from coniferyl alcohol was performed. A set of 27 sequences and 10 COs from different branches of the phylogenetic tree were selected, named CO-02-11. Two additional enzymes were included, which are located in different clusters of the phylogenetic tree: Lignostillbene dioxygenase from Pseudomonas brassicaceraum (PbLSD, PDB: 5V2D) and aromatic dioxygenase (Ado, CO-01) from Thermothelomyces thermophilus (GenBank ID: XP_003665585). The proteins were recombinantly expressed in E. coli BL21(DE3), following the same protocol developed for IECO. […] Putative COs were screened by spectrophotometric assay, monitoring the formation of 3a upon 2a cleavage. From a set of twelve COs, four positive hits, namely CO-01, CO-03, CO-06 and CO-07 were found. Positive variants were tested in the one pot cascade and compared them with IECO In agreement with the spectrophotometric screening, all four COs converted eugenol 1a to vanillin 3a (Table 8). The first step of the cascade is efficiently performed by EUGO, and the substrate is completely consumed. […] Overall, 70±3% conversion of 1a to vanillin 3a was achieved.

[2] = Bioconversion of eugenol to vanillin: one-pot concurrent cascade EUGO + alkene cleavage oxygenase (5 mM scale); type: biochemical; settings: Table 8a, EUGO FD-CFE 1 mg/mL, CO-XX FD-CFE 1 mg/mL, catalase 10 mg/mL, eugenol 5 mM
Experimental: Stock solutions of eugenol (100 mM) were prepared in ethanol or DMSO and stored at −20° C. Unless otherwise stated, the reaction mixtures (0.5 mL) were set up in 1.5 mL glass vials as follows: freeze-dried cell free extract of IECO/CO-XX (3 mg) and EUGO (0.5 mg) were dissolved in the reaction buffer (50 mM glycine-NaOH pH 9.0) containing sodium ascorbate (1 mM), FeSO4 (1 mM) and bovine liver catalase (5 mg, Sigma Aldrich C40). The reaction was initiated by the addition of 0.025 mL eugenol stock (final concentration 5 mM), then incubated at 30° C. and 120 rpm overnight (rotary shaker). The final content of cosolvent was 5% v/v. To improve oxygenation, the vials were placed horizontally. At certain time points, samples (0.2 mL) were quenched with methanol (0.4 mL) and the mixture was centrifuged at 20238 g for 5-10 mins. Finally, the supernatant was analysed by HPLC.
EUGO (0.5 mg CFE), CO-25 (3 mg CFE) and catalase (5 mg, Sigma product #C40) were dissolved in 50 mM Glycine-NaOH pH 9.0 or Tris-HCl pH 8.0 together with FeSO4 (1 mM) and sodium ascorbate (1 mM). Note that the buffer content of the freeze-dried biocatalyst prep was not considered for the assembling of the reaction. The reaction was started by the addition of 5 mM eugenol from a 20× stock in ethanol. The reactions—performed in glass vials—were then incubated at 30° C. and 120 rpm (25 mm shaker). Finally, samples of the reaction mixture were diluted with MeOH and analyzed by HPLC at 280 and 340 nm.

Row | Molecule | Screening of putative COs: formation of 3a upon 2a cleavage (hit or inactive) [1] | Reaction composition after 24 hours 1a (%) ([2]; pH 8.0) | Reaction composition after 24 hours 2a (%) ([2]; pH 8.0) | Reaction composition after 24 hours 3a (%) ([2]; pH 8.0) | Reaction composition after 24 hours 5a (%) ([2]; pH 8.0) | Reaction composition after 24 hours 1a (%) ([2]; pH 9.0) | Reaction composition after 24 hours 2a (%) ([2]; pH 9.0) | Reaction composition after 24 hours 3a (%) ([2]; pH 9.0) | Reaction composition after 24 hours 5a (%) ([2]; pH 9.0)
1 | B1 | positive hits | 51 | 79 | 5 | 16 | ≤1 | 71 | 6 | 23
2 | B2 | positive hits | ≤1 | 74 | 9 | 17 | 51 | 63 | 13 | 24
